Measured values taken from article PMC7429481, “Signalling, trafficking and glucoregulatory properties of glucagon‐like peptide‐1 receptor agonists exendin‐4 and lixisenatide” (British Journal of Pharmacology, 2020).

Molecular target: human SNAP‐GLP‐1 receptor (HEK293‐SNAP‐GLP‐1 receptor cells) (human) (UniProt P43220)
Assay: FRET or BRET

human SNAP‐GLP‐1 receptor (HEK293‐SNAP‐GLP‐1 receptor cells) (human), sequence (P43220 24-463): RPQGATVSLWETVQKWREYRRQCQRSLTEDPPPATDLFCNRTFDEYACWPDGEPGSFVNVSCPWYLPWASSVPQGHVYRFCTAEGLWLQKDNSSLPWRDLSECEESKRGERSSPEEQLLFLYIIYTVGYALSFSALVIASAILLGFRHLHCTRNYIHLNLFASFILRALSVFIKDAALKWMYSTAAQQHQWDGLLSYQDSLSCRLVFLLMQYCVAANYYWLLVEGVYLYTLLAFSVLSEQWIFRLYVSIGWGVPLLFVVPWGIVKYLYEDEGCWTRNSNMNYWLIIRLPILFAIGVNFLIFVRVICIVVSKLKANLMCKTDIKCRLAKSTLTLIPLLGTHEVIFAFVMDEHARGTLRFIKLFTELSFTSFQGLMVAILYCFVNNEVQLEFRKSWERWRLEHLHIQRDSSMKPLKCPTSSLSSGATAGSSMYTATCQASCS

Substance	log KD
exendin‐4 (from UniProt P26349 48-87) (peptide)	-9.2
lixisenatide (peptide)	-9
